Data on two molecules can be found in patent publication US20260258131A1 (ADAGENE PTE, published 2026).

The target of assay [1] is T1, biotinylated CTLA-4 protein (UniProt P16410 36-161, limits assumed, biotinylated (sites not given)).
T1 construct: also called receptor CTLA-4
T1 sequence (looked up): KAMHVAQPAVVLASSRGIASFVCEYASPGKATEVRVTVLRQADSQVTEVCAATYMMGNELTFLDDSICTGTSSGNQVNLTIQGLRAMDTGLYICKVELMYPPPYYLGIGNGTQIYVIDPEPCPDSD
The assay can be described thus: competition ELISA, biotinylated CTLA-4 on coated CD80 (competitor CD80). The source says: (§1) Relative CTLA-4 and its ligand binding was monitored by reading the absorbance at 450 nm wavelength in the micro-plate reader.
A general note: In an ELISA, binding on a coated surface is turned into a signal by an enzyme label.

The target of assay [2] is T2, recombinant human CTLA-4 protein (human, UniProt P16410 36-161, limits assumed).
T2 sequence (looked up): T1 sequence (looked up)
The assay can be described thus: SPR (Biacore), antibody captured by anti-human IgG Fc, CTLA-4 in flow. The procedure:
(§2) Serial dilutions of recombinant CTLA-4 proteins of different species origins were sequentially loaded and flowed through the chip to measure the kinetics of CTLA-4 antigen association (kₐ), followed by a buffer flow-through phase for dissociation kinetics (kd) measurement. The binding affinity (KD) is then calculated with […].
On the technique in general: SPR reads the build-up and loss of mass on a sensor chip optically.

The target of assay [3] is T3, recombinant rat CTLA-4 protein (rat, UniProt Q62859 36-161).
T3 sequence: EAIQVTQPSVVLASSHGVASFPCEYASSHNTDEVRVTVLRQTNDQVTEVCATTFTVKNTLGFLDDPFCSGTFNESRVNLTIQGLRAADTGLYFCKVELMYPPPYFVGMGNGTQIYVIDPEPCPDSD
Described as above. The procedure:
as §2

In assay [4] the target is recombinant mouse CTLA-4 protein (mouse, UniProt P09793 36-161, limits assumed). The assay is described as above. The procedure:
as §2

In assay [5] the target is T4, recombinant cynomolgus monkey CTLA-4 protein (cynomolgus monkey, UniProt G7PL88 36-161).
T4 sequence: T1 sequence (looked up) with S14N, I18T, L106M
Described as above. The protocol:
as §2

The target in assay [6] is T1, biotinylated CTLA-4 protein. The assay can be described thus: competition ELISA, biotinylated CTLA-4 on coated CD86 (competitor CD86).
Source text: as §1

In assay [7] the target is T5, Recombinant human CTLA4-hisFc (human, UniProt P16410 36-161, limits assumed).
T5 construct: Coated on the ELISA plate; the whole UniProt entry is named; also called recombinant human CLTA4-hisFc; its antigen; not shown: his tag and Fc
T5 sequence (looked up): T1 sequence (looked up)
The assay can be described thus: ELISA, coated CTLA4-hisFc. The procedure: Plates were blocked with PBS supplemented with 3% non-fat milk at 37° C. for 1 hour. After washing, 100 µL of 3-fold serial dilutions of antibodies were added to each well. After incubation at 37° C. for 1 hour, plates were washed four times, and 100 μL HRP conjugated anti-human IgG (Fab specific) (1:6000 dilution) was added to each well. Plates were incubated at 37° C. for 1 hour, washed four times, and then 50 μL TMB substrate solution was added to each well, and the plate was incubated at room temperature. Absorbance at 450 nm was measured after the reactions were stopped with 50 μL H2SO4 per well. The EC50 was evaluated by fitting the ELISA data using the sigmoidal (four-parameter logistic equation) model of GraphPad Prism 6 software. Experiments for some activatable antibodies were performed twice or more, leading to two or more calculated masking efficiencies being obtained for each of these activatable antibodies.
The purified activatable antibodies were treated with the proteases which recognize the cleavage sequences, and were then tested to determine whether removal of the masking peptide restored their activity. […] The reactions were carried out at 37° C. for 24 hours. […] The masking efficiency was then measured by ELISA as described above.

The target of assay [8] is T6, human CTLA4 expressed on cells (human, UniProt P16410 36-223).
T6 sequence (looked up): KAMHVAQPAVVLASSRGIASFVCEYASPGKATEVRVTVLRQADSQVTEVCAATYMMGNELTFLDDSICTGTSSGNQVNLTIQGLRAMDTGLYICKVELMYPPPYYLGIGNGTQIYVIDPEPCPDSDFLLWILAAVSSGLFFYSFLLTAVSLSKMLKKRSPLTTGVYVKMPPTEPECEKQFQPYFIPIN
The assay can be described thus: cell-based or functional assay.

Numbering of substitutions follows the chain as printed.

B1: TY24652 (antibody, human IgG1, kappa)
heavy: not shown
light: ETLCEPFATSVCRPGGGPLGLAGGGSDIQLTQSPSSLSASVGDRVTITCRASQSVRGRFLAWYQQKPGKAPKLLIYDASNRATGIPSRFSGSGSGTDFTLTISSLQPEDFATYYCQQSSSWPPTFGQGTKVEIKRTVAAPSVFIFPPSDEQLKSGTASVVCLLNNFYPREAKVQWKVDNALQSGNSQESVTEQDSKDSTYSLSSTLTLSKADYEKHKVYACEVTHQGLSSPVTKSFNRGEC
notes: also called non-cleaved form TY24652
What is called IC50 is the concentration needed to halve the response being measured. Broadly, the Kd is a measure of binding affinity in units of concentration. As to B1, the figures for the half-inhibitory concentration (IC50) in assay [1] and in assay [6] were above 20 µM and above 4 µM, respectively. In addition, the Kd was 0.0325 µM in assay [2], 0.0595 µM in assay [3], 0.0494 µM in assay [4] and 0.0323 µM in assay [5].

B2: TY21580 (antibody, human IgG1, V domains shown)
VH: EVQLVESGGGLVQPGGSLRLSCAASGYSISSGYHWSWIRQAPGKGLEWLARIDWDDDKYYSTSLKSRLTISRDNSKNTLYLQLNSLRAEDTAVYYCARSYVYFDYWGQGTLVTVSS
VL: DIQLTQSPSSLSASVGDRVTITCRASQSVRGRFLAWYQQKPGKAPKLLIYDASNRATGIPSRFSGSGSGTDFTLTISSLQPEDFATYYCQQSSSWPPTFGQGTKVEIKR
notes: also called parental antibody TY21580
By EC50 is commonly meant the concentration needed to bring the measured effect to its halfway point. As to B2, the Kd is 0.00078 µM in assay [3], 0.0005 µM in assay [4] and 0.00037 µM in assay [5]. In addition, the EC50 in assay [7] was 0.000298 µM. Also, the “ADCP reporter activity (luciferase), EC50” value in assay [8] turned out to be 0.0056 µM.
